Assay results published in PMC12797002, “Hydrophobic residues in the α‐synuclein NAC domain drive seed‐competent fibril formation and are targeted by peptide inhibitors” (The Febs Journal, 2025).
“Also recorded” adds a separate entry of the source.

Assays:
[1] = UV-Vis spectrophotometric analysis of soluble and insoluble fractions; assay type: physicochemical; conditions: 100 μM peptide, 48 h incubation without ThT, 65 000 g 1 h, 1× PBS pH 7.2, spectra 400–600 nm; means of 3 replicates
Description: To fractionate aggregated samples (recombinant αSyn or NAC peptides), 20% of the aggregation mixture was set aside as the ‘total fraction’. The remaining sample was centrifuged at room temperature at 65 000 g for 1 h. The supernatant was collected as the ‘soluble fraction’ and transferred to a fresh tube. The pellet was resuspended in 80 μL of 1× PBS (pH 7.2) and centrifuged at 65 000 g for 1 h. After removing the supernatant, the pellet was resuspended in 8 μL of 1× PBS (pH 7.2), yielding a 10× concentrated ‘insoluble fraction’.
NAC peptides (100 μM) were incubated without ThT for 48 h to allow aggregation. The resulting mixtures were centrifuged at 65 000 g for 1 h to separate the soluble and insoluble fractions, as outlined above. Insoluble fractions were resuspended in an equal volume of 1× PBS (pH 7.2) as the soluble fractions. UV–Vis absorption spectra were recorded from 400 to 600 nm using an EnSpire Multimode Plate Reader (Revvity) with a resolution of 10 nm.

[2] = ThT aggregation kinetics and AFM/TEM imaging of NAC peptides; assay type: physicochemical; conditions: for aggregation (ThT kinetics) / lag time of aggregation compared with NAC35: 100 μM peptide, n = 3; for aggregation (ThT kinetics): 15 μM ThT, 1× PBS pH 7.2, 37 °C, 1000 rpm, 48–72 h, ThT fluorescence; for aggregate morphology (AFM and TEM): after 48 h of aggregation; for Key observations: fibril formation and stability / Key observations: nucleation: summary table; for lag time of aggregation compared with NAC35: ThT readings 0–10 h, Boltzmann sigmoidal fit, PBS pH 7.2, 37 °C
Description: NAC peptides stored at −80 °C were thawed on ice and centrifuged at 12 100 g for 45 s. A reaction mixture (40 μL) was prepared on ice containing 100 μM NAC peptide, either alone or in combination with inhibitor peptides at a 1 : 2 molar ratio, along with 15 μM ThT (Sigma‐Aldrich, Burlington, MA, USA; Cat. # T3516‐5G) in 1× PBS (pH 7.2). This mixture was then dispensed into a clear‐bottom, black 384‐well plate (Revvity, Waltham, MA, USA), and the plate was sealed with a TopSealA‐PLUS (Revvity) to prevent evaporation.
The aggregation kinetics was monitored on an EnSpire Multimode Plate Reader (Revvity) at 37 °C with a constant agitation of 1000 rpm. To prevent condensation in the assay plate, the upper heater temperature in the plate reader was set to 2 °C higher than the lower heater temperature. ThT (Ex: 460–490 nm, Em: 500–550 nm) fluorescence readings were recorded every 5–10 min for 48–72 h. The aggregation lag time was determined by fitting a Boltzmann sigmoidal equation to the fluorescence data in OriginPro 2024 (OriginLab Corporation, Northampton, MA, USA).
NAC peptide aggregates, collected after 48 h of the aggregation assay, were dropped onto a freshly cleaved 10 mm AFM mica disc (Ted Pella, Inc., Redding, CA, USA) and air‐dried for 10 min at room temperature. The mica discs were washed five times with deionized water and then dried for 10–15 min at room temperature. AFM imaging was performed as described, using the […] AIR probe (tip radius: 2 nm, spring constant: 0.4 N/m).
Samples were dropped on glow‐discharged carbon‐coated copper grids and negatively stained with 2% uranyl acetate. Electron microscopy was performed on a Tecnai G2 F20 microscope (FEI Technologies, Hillsboro, OR, USA) with an Eagle 4K CCD camera (FEI Technologies) or a CM100 TWIN Transmission Electron Microscope (Philips, Amsterdam, Netherlands) equipped with a side‐mounted Veleta Camera (Olympus, Tokyo, Japan) and processed in the iTEM software suite (Olympus). After bringing the images to 2048 × 2048 pixels, the pixel size at the specimen level was 1.14 nm. Approximately 20 micrographs of each specimen were recorded and evaluated.

[3] = ANS assay of NAC peptide aggregation at different pH; assay type: physicochemical; conditions: ANS fluorescence, 100 μM peptide; for aggregation on altering pH: acidic, neutral (pH 7.2) and basic (pH 8.0) PBS, 37 °C; for lag time at acidic pH compared with neutral pH / lag time at basic pH compared with neutral pH: 40 μM ANS, 1× PBS, 1000 rpm, n = 3; for lag time at acidic pH compared with neutral pH: acidic (pH 4.5 in legend, pH 4.2 in method) vs pH 7.2, 37 °C; for lag time at basic pH compared with neutral pH: pH 8.0 vs pH 7.2, 37 °C
Description: A 40‐μL reaction mixture was prepared on ice containing 100 μM NAC peptides and 40 μM 8‐anilino‐1‐naphthalenesulfonic acid (ANS; Sigma‐Aldrich, Cat. # A1028‐5G) in 1× PBS at pH 4.2, 7.2, or 8.0. The aggregation kinetics were monitored on an EnSpire Multimode Plate Reader (Revvity) at 37 °C with a constant agitation of 1000 rpm. ANS fluorescence readings (Ex: 390 nm, Em: 475 nm) were recorded every 5–10 min for 48–72 h. The lag time of aggregation was determined by fitting a Boltzmann sigmoidal equation, as described in the previous section.

monomeric αSyn = target: T1, monomeric αSyn (Homo sapiens, UniProt P37840, A53T); experiment: In vitro seeding assay with preformed fibrils (ThT, dot blot, Coomassie gel); assay type: biochemical; conditions: for seeding of αSyn aggregation (effect on lag time) in words: 100 μM αSyn + 25 μM preformed fibrils, ThT; for αSyn dimerization (dimer-to-monomer band ratio, Coomassie gel): insoluble fractions of seeded αSyn, n = 2; for Key observations: seeding of αSyn aggregation: summary table
T1 construct: made in house
Description: For the in vitro seeding assay, αSyn (100 μM), NAC35 (100 μM), NAC16 (200 μM), and NAC11 (200 μM) peptides were aggregated without ThT for 72–96 h. Fibril formation was confirmed by mixing 10 μL of the aggregated sample with 15 μM ThT and measuring fluorescence using an EnSpire Multimode Plate Reader (Revvity). Aggregates were then centrifuged to separate insoluble fractions as described above.
αSyn (100 μM) was incubated with 25 μM insoluble fractions (preformed fibrils) of αSyn, NAC35, NAC16, and NAC11 in a 100–150 μL volume per well of a 96‐well ViewPlate in the presence of 50 μM ThT. The aggregation kinetics were monitored on an EnSpire Multimode Plate Reader (Revvity) at 37 °C with a constant agitation of 1000 rpm. ThT fluorescence was recorded every 5–10 min for over 60–65 h. After aggregation, the contents of each well were collected, and insoluble fractions were isolated by centrifugation. These fractions were subsequently analyzed using dot blot analysis and Coomassie gel staining.
The samples were mixed with 2× Laemmli buffer [62.5 mM Tris/HCl (pH 6.8), 25% (w/v) glycerol, 2% SDS, and 0.01% Bromophenol Blue, supplemented with 5% (v/v) 2‐mercaptoethanol] and boiled at 95 °C for 5 min. The samples were then subjected to electrophoresis using Mini‐PROTEAN TGX 4–20% Precast gels (Bio‐Rad, Hercules, CA, USA, Cat. # 4561095) in Tris/glycine/SDS running buffer (Bio‐Rad). Gels were fixed in 50% methanol (v/v) and 10% acetic acid (v/v) for 1 h, stained with Coomassie Brilliant Blue R‐250 Staining Solution (Bio‐Rad, Cat. # 1610436EDU) for 12 h at 4 °C with gentle agitation, and destained in deionized water. Gel images were acquired using a ChemiDoc MP imaging system (Bio‐Rad), and densitometry was performed using the IMAGEJ software (RRID: SCR_003070; Bethesda, MD, USA).
Five μL of the sample (2.5 μL first, allowed to dry completely, then another 2.5 μL) was spotted onto a nitrocellulose membrane (Bio‐Rad, Cat. # 1620147), pre‐divided into uniform circular grids, and allowed to dry for 10 min at room temperature. The membrane was blocked for 1 h with 5% bovine serum albumin (BSA) in 1× Tris‐buffered saline with 0.05% Tween® 20 (TBST), followed by 3× washes with TBST. The membrane was then incubated for 1 h with anti‐α‐Synuclein (D37A6) rabbit monoclonal antibody (Cell Signaling Technology, Inc., Danvers, MA, USA, Cat. # 4179, RRID: AB_1904156), which recognizes an epitope surrounding Glu105 in the C‐terminal region of αSyn, and was used at a 1 : 2000 dilution in 5% BSA/TBST. After 3× washes with TBST, the blot was incubated with Alexa Fluor™ 647 Goat anti‐Rabbit IgG (Thermo Fisher Scientific; Cat. # A‐21245) at a 1 : 5000 dilution for 1 h. The blot was imaged using the ChemiDoc MP imaging system (Bio‐Rad), and densitometry was performed using IMAGEJ.

seeding of αSyn aggregation (effect on lag time) in words (monomeric αSyn) | Key observations: seeding of αSyn aggregation (monomeric αSyn) | insoluble fraction of seeded αSyn (dot blot) (monomeric αSyn; αSyn aggregated for 72 h with preformed fibrils, n = 3) | Substance | solubility: UV–Vis absorption of soluble and insoluble fractions [1] | aggregation (ThT kinetics) [2] | aggregate morphology (AFM and TEM) [2] | Key observations: fibril formation and stability [2] | Key observations: nucleation [2] | aggregation on altering pH [3] | αSyn dimerization (dimer-to-monomer band ratio, Coomassie gel) (monomeric αSyn) | lag time of aggregation compared with NAC35 [2] | lag time at acidic pH compared with neutral pH [3] | lag time at basic pH compared with neutral pH [3]
 |  |  | NAC8: shortest NAC peptide, eight residues, corresponding to αSyn 72–79 (TGVTAVAQ) | indistinguishable spectra for soluble and insoluble fractions; also recorded: remained fully soluble | did not aggregate | no fibrillar or aggregated structures were formed | No nucleation or fibril formation observed | No nucleation or fibril formation observed | did not induce |  |  |  | 
 |  |  | NAC12: truncated NAC peptide corresponding to αSyn 71–82 (VTGVTAVAQKTV) | indistinguishable spectra for soluble and insoluble fractions; also recorded: remained fully soluble | did not aggregate | no fibrillar or aggregated structures were formed | No nucleation or fibril formation observed | No nucleation or fibril formation observed | did not induce |  |  |  | 
fail to seed αSyn aggregation | lacks seeding ability |  | NAC16: truncated NAC peptide corresponding to αSyn 63–78 (VTNVGGAVVTGVTAVA) | clear increase in absorbance in the insoluble fraction | readily underwent aggregation | elongated fibrils with clumped tangles | moderately stable fibrils | Rapid nucleation |  | did not promote dimerization or aggregation | shorter lag time of aggregation than NAC35 | longer lag times | longer lag times
 |  |  | NAC17: truncated NAC peptide corresponding to αSyn 79–95 (QKTVEGAGSIAAATGFV) | indistinguishable spectra for soluble and insoluble fractions; also recorded: remained fully soluble | did not aggregate | no fibrillar or aggregated structures were formed | No nucleation or fibril formation observed. | No nucleation or fibril formation observed. | did not induce |  |  |  | 
significantly shortened the lag time | effective seeding of αSyn aggregation | increased insoluble fractions | NAC35: peptide of the entire NAC domain, corresponding to αSyn 61–95 | clear increase in absorbance in the insoluble fraction | readily underwent aggregation | elongated fibrils with clumped tangles | forms robust fibrils with enhanced stability | Slow nucleation |  | significantly increased αSyn dimerization |  | shortened the lag time | increased it

Substance | seeding of αSyn aggregation (effect on lag time) in words (monomeric αSyn) | Key observations: seeding of αSyn aggregation (monomeric αSyn) | insoluble fraction of seeded αSyn (dot blot) (monomeric αSyn; αSyn aggregated for 72 h with preformed fibrils, n = 3) | solubility: UV–Vis absorption of soluble and insoluble fractions [1] | aggregation (ThT kinetics) [2] | aggregate morphology (AFM and TEM) [2] | Key observations: fibril formation and stability [2] | Key observations: nucleation [2] | aggregation on altering pH [3] | αSyn dimerization (dimer-to-monomer band ratio, Coomassie gel) (monomeric αSyn) | lag time of aggregation compared with NAC35 [2] | lag time at acidic pH compared with neutral pH [3] | lag time at basic pH compared with neutral pH [3]
NAC11: truncated NAC peptide corresponding to αSyn 68–78, the minimal toxic core (GAVVTGVTAVA) | fail to seed αSyn aggregation | lacks seeding ability |  | clear increase in absorbance in the insoluble fraction | readily underwent aggregation | dense, sticky bundles lacking elongated tangles | forms unstable fibrils prone to precipitation | Rapid nucleation |  | did not promote dimerization or aggregation | shorter lag time of aggregation than NAC35 | longer lag times | longer lag times
